Molecular target: HLA-A*02:01 (Homo sapiens, UniProt P04439, D140Y/D185E/D98H/E176V/E277Q/G131W/G231S/I119V/I121R/I166T/I218V/L300P/L318F/N151K/N90K/P208A/P217A/Q86G/Q94H/R138H/R169H/T345S)
Experiment: MHC binding assay (UV-ligand exchange, ELISA of exchange yield)
Settings: binding to HLA-A*02:01, UV-ligand exchange
Source text: Candidate peptides for T cell based therapies according to the present invention were further tested for their MHC binding capacity (affinity). The individual peptide-MHC complexes were produced by UV-ligand exchange, where a UV-sensitive peptide is cleaved upon UV-irradiation, and exchanged with the peptide of interest as analyzed. Only peptide candidates that can effectively bind and stabilize the peptide-receptive MHC molecules prevent dissociation of the MHC complexes. To determine the yield of the exchange reaction, an ELISA was performed based on the detection of the light chain (p2m) of stabilized MHC complexes. The assay was performed as generally described in Rodenko et al. (Rodenko et al., 2006).
96 well MAXISorp plates (NUNC) were coated over night with 2 μg/ml streptavidin in PBS at room temperature, washed 4× and blocked for 1 h at 37° C. in 2% BSA containing blocking buffer. […] Peptide-MHC monomers of the UV-exchange reaction were diluted 100 fold in blocking buffer. Samples were incubated for 1h at 37° C., washed four times, incubated with 2 μg/ml HRP conjugated anti-β2m for 1h at 37° C., washed again and detected with TMB solution that is stopped with […]. Absorption was measured at 450 nm. Candidate peptides that show a high exchange yield (preferably higher than 50%, most preferred higher than 75%) are generally preferred for a generation and production of antibodies or fragments thereof, and/or T cell receptors or fragments thereof, as they show sufficient avidity to the MHC molecules and prevent dissociation of the MHC complexes.

Peptide exchange (MHC class I binding score, peptide exchange yield) | Substance
“++++” (≥75% = ++++) | 4 (GIMEHITKI; listed as Homo sapiens) [compound 4]
“++++” (≥75% = ++++) | 7 (SLVGLLLYL; listed as Homo sapiens) [compound 7]
“+++” (≥50 = +++) | 11 (KIFEMLEGV; listed as Homo sapiens) [compound 11]
“+++” (≥50 = +++) | 12 (SLWPDPMEV; listed as Homo sapiens) [compound 12]
“+++” (≥50 = +++) | 13 (YLMDESLNL; listed as Homo sapiens) [compound 13]
“+++” (≥50 = +++) | 14 (AAYGGLNEKSFV; listed as Homo sapiens) [compound 14]
“++” (≥20% = ++) | 15 (VLLTFKIFL; listed as Homo sapiens) [compound 15]
“+++” (≥50 = +++) | 17 (GLLPGDRLVSV; listed as Homo sapiens) [compound 17]
“++++” (≥75% = ++++) | 19 (FMVDNEAIYDI; listed as Homo sapiens) [compound 19]
“+++” (≥50 = +++) | 23 (VLLDDIFAQL; listed as Homo sapiens) [compound 23]
“++” (≥20% = ++) | 24 (SLSDGLEEV; listed as Homo sapiens) [compound 24]
“+++” (≥50 = +++) | 26 (ALLELAEEL; listed as Homo sapiens) [compound 26]
“+++” (≥50 = +++) | 27 (ILADIVISA; listed as Homo sapiens) [compound 27]
“+++” (≥50 = +++) | 29 (KMLGIPISNILMV; listed as Homo sapiens) [compound 29]
“++” (≥20% = ++) | 31 (YLAPELFVNV; listed as Homo sapiens) [compound 31]
“+++” (≥50 = +++) | 34 (ILVEADSLWVV; listed as Homo sapiens) [compound 34]
“+++” (≥50 = +++) | 41 (SLMPHIPGL; listed as Homo sapiens) [compound 41]
“++” (≥20% = ++) | 43 (VLSSLEINI; listed as Homo sapiens) [compound 43]
“++” (≥20% = ++) | 44 (ILDPISSGFLL; listed as Homo sapiens) [compound 44]
“++” (≥20% = ++) | 47 (ILLSVPLLVV; listed as Homo sapiens) [compound 47]
“+++” (≥50 = +++) | 48 (ALAELYEDEV; listed as Homo sapiens) [compound 48]
“+++” (≥50 = +++) | 50 (SLSELEALM; listed as Homo sapiens) [compound 50]
“++++” (≥75% = ++++) | 51 (LLPDLEFYV; listed as Homo sapiens) [compound 51]
“++++” (≥75% = ++++) | 52 (FLLAHGLGFLL; listed as Homo sapiens) [compound 52]

Continued, substance first:

Substance | Peptide exchange (MHC class I binding score, peptide exchange yield)
1 (SLMEPPAVLLL; listed as Homo sapiens) [compound 1] | “+++” (≥50 = +++)
2 (SLLEADPFL; listed as Homo sapiens) [compound 2] | “+++” (≥50 = +++)
3 (SLASKLTTL; listed as Homo sapiens) [compound 3] | “++++” (≥75% = ++++)
5 (HLTEVYPEL; listed as Homo sapiens) [compound 5] | “+++” (≥50 = +++)
6 (VLVSDGVHSV; listed as Homo sapiens) [compound 6] | “+++” (≥50 = +++)
8 (FTLGNVVGMYL; listed as Homo sapiens) [compound 8] | “++++” (≥75% = ++++)
9 (GAAKDLPGV; listed as Homo sapiens) [compound 9] | “++” (≥20% = ++)
10 (FLATFPLAAV; listed as Homo sapiens) [compound 10] | “++++” (≥75% = ++++)
16 (VLFQGQASL; listed as Homo sapiens) [compound 16] | “+++” (≥50 = +++)
18 (YLVAKLVEV; listed as Homo sapiens) [compound 18] | “++” (≥20% = ++)
20 (RMIEYFIDV; listed as Homo sapiens) [compound 20] | “+++” (≥50 = +++)
21 (VLDELDMEL; listed as Homo sapiens) [compound 21] | “++” (≥20% = ++)
22 (IMEENPGIFAV; listed as Homo sapiens) [compound 22] | “+++” (≥50 = +++)
25 (FLPDEPYIKV; listed as Homo sapiens) [compound 25] | “+++” (≥50 = +++)
28 (QLLDETSAITL; listed as Homo sapiens) [compound 28] | “+++” (≥50 = +++)
30 (LILDWVPYI; listed as Homo sapiens) [compound 30] | “+++” (≥50 = +++)
32 (KLDDLTQDLTV; listed as Homo sapiens) [compound 32] | “++” (≥20% = ++)
33 (VLLSLLEKV; listed as Homo sapiens) [compound 33] | “++” (≥20% = ++)
35 (KINDTIYEV; listed as Homo sapiens) [compound 35] | “+++” (≥50 = +++)
36 (YVLEDLEVTV; listed as Homo sapiens) [compound 36] | “++” (≥20% = ++)
38 (FLLEDDIHVS; listed as Homo sapiens) [compound 38] | “+++” (≥50 = +++)
39 (SVAPNLPAV; listed as Homo sapiens) [compound 39] | “+++” (≥50 = +++)
40 (TLLVKVFSV; listed as Homo sapiens) [compound 40] | “+++” (≥50 = +++)
42 (VLLQKIVSA; listed as Homo sapiens) [compound 42] | “+++” (≥50 = +++)
45 (SLWQDIPDV; listed as Homo sapiens) [compound 45] | “+++” (≥50 = +++)
46 (ILTEENIHL; listed as Homo sapiens) [compound 46] | “+++” (≥50 = +++)
49 (YLPAVFEEV; listed as Homo sapiens) [compound 49] | “+++” (≥50 = +++)
